According to patent publication US20180162938A1 (GANYMED PHARMACEUTICALS, published 2018):
Blank lines part the entries; values can stand above or below the molecule they belong to.

How the values were obtained:
[1] = target: human CLDN3 (claudin 3) (human) (UniProt O15551); assay: flow cytometry, HEK293T transiently co-transfected with the claudin and a fluorescence reporter; positive control, by the legend MAB4620; other quadrants printed: Q1 37,91, Q3 29,94, Q4 0,76
[2] = target: T1, human CLDN6 (claudin 6), full length (human, UniProt P56747 1-220); assay: flow cytometry, HEK293T transiently co-transfected with the claudin and a fluorescence reporter; other quadrants printed: Q1 0,09, Q3 75,0…, Q4 24,73
T1 construct: Expressed untagged from vector p3953 in HEK293T, HEK293 and CHO-K1 cells; endogenous in NEC8 and OV90 cells; In the Western blots it stood in denatured cell lysate; also called wild-type CLDN6
T1 sequence: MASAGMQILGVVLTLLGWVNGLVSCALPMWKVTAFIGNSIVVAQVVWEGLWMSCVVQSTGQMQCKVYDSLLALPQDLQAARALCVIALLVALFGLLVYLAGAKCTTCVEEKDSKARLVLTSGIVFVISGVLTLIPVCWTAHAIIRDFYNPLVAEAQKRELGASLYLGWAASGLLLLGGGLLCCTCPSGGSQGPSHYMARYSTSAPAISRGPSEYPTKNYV

[3] = target: CLDN6 SNP (single nucleotide polymorphism) variant I143V (human) (UniProt P56747); assay: flow cytometry, HEK293T transiently co-transfected with the claudin and a fluorescence reporter; other quadrants printed: Q1 0,18, Q3 64,8…, Q4 34,5…
[4] = target: human CLDN3 (claudin 3) (human) (UniProt O15551); assay: flow cytometry, HEK293T transiently co-transfected with the claudin and a fluorescence reporter; other quadrants printed: Q1 0,32, Q3 63,10, Q4 36,2…
[5] = target: human CLDN4 (claudin 4) (human) (UniProt O14493); assay: flow cytometry, HEK293T transiently co-transfected with the claudin and a fluorescence reporter; other quadrants printed: Q1 0,47, Q3 51,89, Q4 46,45
[6] = target: human CLDN9 (claudin 9) (human) (UniProt O95484); assay: flow cytometry, HEK293T transiently co-transfected with the claudin and a fluorescence reporter; other quadrants printed: Q1 0,65, Q3 53,91, Q4 44,03
human CLDN9 (claudin 9) (human), sequence (O95484 whole entry): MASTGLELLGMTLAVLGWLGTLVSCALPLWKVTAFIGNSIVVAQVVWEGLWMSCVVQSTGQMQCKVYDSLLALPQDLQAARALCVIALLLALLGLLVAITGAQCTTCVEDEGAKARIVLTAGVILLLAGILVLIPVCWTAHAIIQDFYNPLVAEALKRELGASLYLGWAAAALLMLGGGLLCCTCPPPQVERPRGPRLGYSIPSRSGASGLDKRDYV

[7] = target: CLDN6 SNP (single nucleotide polymorphism) variant I143V (human) (UniProt P56747); assay: flow cytometry, HEK293T transiently co-transfected with the claudin and a fluorescence reporter; positive control, by the legend MAB3656; other quadrants printed: Q1 47,20, Q3 20,26, Q4 0,33
[8] = target: T1, human CLDN6 (claudin 6), full length; assay: flow cytometry, HEK293T transiently co-transfected with the claudin and a fluorescence reporter; positive control, by the legend MAB3656; other quadrants printed: Q1 58,39, Q3 18,6…, Q4 0,13
[9] = target: T1, human CLDN6 (claudin 6), full length; assay: flow cytometry saturation binding (median fluorescence), HEK293 cells stably expressing human CLDN6

human CLDN3 (claudin 3) (human), sequence (O15551 whole entry): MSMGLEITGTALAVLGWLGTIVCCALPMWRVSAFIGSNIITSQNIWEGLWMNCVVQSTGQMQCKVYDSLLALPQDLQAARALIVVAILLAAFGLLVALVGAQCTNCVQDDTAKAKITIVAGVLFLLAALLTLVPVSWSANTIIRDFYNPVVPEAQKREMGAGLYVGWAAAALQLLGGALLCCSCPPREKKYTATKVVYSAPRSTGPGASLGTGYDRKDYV

Molecule: mouse anti-CLDN3 IgG2a (R&D Systems, MAB4620) (antibody)
- percent of events in Q2 (reporter-positive, antibody-positive) [1]: 31.4

Molecule: mouse anti-CLDN6 IgG2b (R&D Systems, MAB3656) (antibody)
- percent of events in Q2 (reporter-positive, antibody-positive) [7]: 32.2
- percent of events in Q2 (reporter-positive, antibody-positive) [8]: 22.8

Now from value to molecule:

- percent of events in Q2 (reporter-positive, antibody-positive) [2]: 0.12
- percent of events in Q2 (reporter-positive, antibody-positive) [3]: 0.44
- percent of events in Q2 (reporter-positive, antibody-positive) [4]: 0.37
- percent of events in Q2 (reporter-positive, antibody-positive) [5]: 1.18
- percent of events in Q2 (reporter-positive, antibody-positive) [6]: 1.42
Molecule: Isotype (antibody)

- EC50 (read off the curve) [9]: ~400 ng/mL
B1: murine monoclonal antibody muMAB 67A (antibody, V domains shown)
VH: EVQLQQSGPELVKPGASMKISCKASGYSFTGYTMNWVKQSHGKNLEWIGLINPYNGGIIYNQKFKGKATLTVDKSSSTAYMELLSLTSEDSAVFYCARDFGYVLDYWGQGTTLTVSS
VL: QIVLTQSPAIMSASPGEKVTITCSASSSVSYMHWFQQKPGTSPKLWIYSTSNLASGVPARFSGSGSGTSYSLTISRVAAEDAATYYCQQRSTYPPWTFGGGTKLEIK
